Key:
Format in all cases: in vivo
db/db mice [1] = assay: Body weight, daily then intermittent s.c. dosing to day 29 in db/db mice (Example 2)
Description: Female db/db mice (12 weeks old) were divided into four groups and were subcutaneously injected with vehicle (PBS) or NT-4/5 at doses of 2 mg/kg, 5 mg/kg, or 10 mg/kg daily from day 0 to day 4, and then on day 8, day 11, day 15, day 18, day 22, day 25, and day 29. […] In addition, the body weights in NT-4/5 in all treated groups continued to be reduced during the treatment period.

DIO mice [2] = assay: Respiratory quotient and energy expenditure by indirect calorimetry (CCMS) in DIO mice (Example 9)
Excerpt: Test animals: Mice with diet induced obesity (DIO) were used in this study. 29 male C57BL/6J mice were weaned at 4 weeks of age. Immediately after weaning they were put on 58% high fat diet (D12331i, Research Diet) through out the study. The DIO mice at 13 weeks of age weighing in the range of 28-40 g were used in this study.
Administration of NT-4/5: NT-4/5 was obtained from Genentech Inc. or produced as described in U.S. Pat. No. 6,184,360. The mice were divided into 2 groups of equivalent body weight distribution (8 mice per group). The mice were acclimated individually in the Comprehensive Cage Monitoring System (CCMS, Columbus Instruments) for 2 days, in preparation for the indirect calorimetry, before the treatment started. Each group received 5 daily subcutaneous doses of either vehicle or 10 mg/kg of NT-4/5, respectively. Body weight and food intake were monitored 5 days per week through out the entire study. […] The body composition, i.e. percent lean body mass, fat content, and bone density was determined the day both before treatment started (day 0) and the final day of treatment (day 5) with a PIXImus Mouse Densitometer (GE Lunar Medical Systems, Madison, Wis.) using software version 1.46. […]

db/db mice [3] = assay: Dose response of NT-4/5 on serum biomarkers of db/db mice (Example 2)
Description: Db/db mice maintained as described in Example 1 were divided into five groups (groups 1-5). Group 1 (7 mice) were administered with vehicle (PBS). Group 2 (7 mice), group 3 (8 mice), group 4 (8 mice), group 5 (8 mice) were each administered with NT-4/5 at the doses of 2 mg/kg, 5 mg/kg, 10 mg/kg, and 20 mg/kg, respectively. Both the vehicle and NT-4/5 were administered to each group of the mice subcutaneously once daily for five days. One day before beginning the treatment (T0), blood samples were collected from the mice as described previously for the determination of baseline levels of serum biomarkers (glucose, triglyceride, and cholesterol). Similarly, at day 6 (T6), blood samples were collected for the determination of serum biomarker levels. The blood samples were treated in the same manner as described in Example 1.
Blood glucose, triglyceride, and cholesterol levels were determined as described in Example 1.

db/db mice [4] = assay: Body weight after single injection of NT-4/5 or pegylated NT-4/5 in db/db mice (Example 7, Table 21); conditions: for Body weight expressed in percentage of baseline value: single 5 mg/kg dose on day 1
Description: Test animals: 30 female db/db mice at 7 weeks of age weighing in the range of 27-34 g were used in this study.
Administration of NT-4/5 and pegylated NT-4/5: Wild type NT-4/5 was obtained from Genentech Inc. The mice were divided into 5 groups of equivalent body weight distribution (6 mice per group). Each group received on the first day (day 1) of the study one and the only dose of either vehicle, 5 mg/kg of NT-4/5 produced as described above, 5 mg/kg of 2PEG-NT4-G1S, or 5 mg/kg of 1PEG-NT4-G1S. 2PEG-NT4-G1S represents one PEG molecule was conjugated to each NT-4/5 monomer in a NT-4/5 dimer, and 1PEG-NT4-G1S represents one PEG molecule was conjugated to only one monomer of the NT-4/5 dimer. 2PEG-NT4-G1S and 1PEG-NT4-G1S were separated by ion exchange. Four days before starting the treatment (day −4), blood samples were collected from the mice as described previously for the determination of baseline levels of serum glucose. On day 4 after the treatment started, blood samples were collected again to determine serum glucose level. Body weight and food intake were monitored 5 days a week through out the entire study.

DIO mice [5] = assay: Body weight and food intake in high fat diet-induced obese (DIO) mice (Example 5); conditions: 2 and 10 mg/kg s.c.; P<0.001; dose dependent
Description: Test animals: Mice with diet induced obesity (DIO) from Jackson Laboratory were used in this study. El-Haschimi, J. Clin. Invest. 105:1827-1832 (2000); Steppan, Nature 409:307-312 (2001). 23 male C57BL/6J mice were weaned at 4 weeks of age. Immediately after weaning they were put on about 58% high fat diet ([…], Research Diet) through out the study. The DIO mice at 13 weeks of age weighing in the range of 28-40 g were used in this study. Older mice at 22-24 weeks of age were also used.
Administration of NT-4/5: NT-4/5 used in this study was obtained from Genentech. The mice were divided into 3 groups of equivalent body weight and baseline blood glucose distribution (7-8 mice per group). Each group received from day 1 to day 5, from day 8 to day 12, from day 15 to 16 a daily subcutaneous dose of either vehicle, 2 mg/kg or 10 mg/kg of NT-4/5, respectively. Five days prior to the treatment started (day −5), a baseline blood samples were collected for measuring glucose and triglyceride. Subsequent to the treatment started (day 1), blood glucose and triglyceride were measured once a week. Body weight, food intake were monitored 5 days per week through out the entire study. […] They were fasted overnight (for 16 hours) before fasting glucose levels were measured and the oral glucose tolerance test was conducted with a load of 2 grams of glucose/kg of body weight.

[6] = Day 0 (Baseline), 2 mg/kg group
[7] = Day 0 (Baseline), 5 mg/kg group
[8] = Day 0 (Baseline), 10 mg/kg group
[9] = Day 0 (Baseline), 20 mg/kg group

B1: NT-4/5: mature human neurotrophin-4/5 (SEQ ID NO:1), obtained from Genentech or produced in E. coli (protein, listed as Homo sapiens)
chain: GVSETAPASRRGELAVCDAVSGWVTDRRTAVDLRGREVEVLGEVPAAGGSPLRQYFFETRCKADNAEEGGPGAGGGGCRGVDRRHWVSECKAKQSYVRALTADAQGRVGWRWIRIDTACVCTLLSRTGRA
B1 was tested, and the “body weight” value (db/db mice [1]; 2, 5 or 10 mg/kg s.c. daily day 0-4, then days 8, 11, 15, 18, 22, 25, 29) was “reduced body weight in a dose dependent manner”, the body weight reduction (db/db mice [1]; day 31, 5 mg/kg and 10 mg/kg groups) was “about 20%” and the “respiratory quotient (RQ=Vco2/Vo2)” value (DIO mice [2]; 10 mg/kg s.c. daily, P=0.0025) was “reduced the respiratory quotient”. For the same molecule, the “estimated cumulative energy expenditure” value (DIO mice [2]; day 1 to day 5, 10 mg/kg, vs vehicle) was “No change”, the Cholesterol (db/db mice [3]; [6]) was 86.25 mg/dL and the Glucose (db/db mice [3]; [6]) was 544.50 mg/dL. It also gave a Triglyceride (db/db mice [3]; [6]) of 206.13 mg/dL, a Cholesterol (db/db mice [3]; [7]) of 95.88 mg/dL and a Glucose (db/db mice [3]; [7]) of 563.00 mg/dL. It also gave a Triglyceride (db/db mice [3]; [7]) of 217.13 mg/dL, a Cholesterol (db/db mice [3]; [8]) of 90.00 mg/dL and a Glucose (db/db mice [3]; [8]) of 538.00 mg/dL. The Triglyceride (db/db mice [3]; [8]) was 197.50 mg/dL, the Cholesterol (db/db mice [3]; [9]) was 98.38 mg/dL and the Glucose (db/db mice [3]; [9]) was 544.88 mg/dL. The Triglyceride (db/db mice [3]; [9]) was 253.50 mg/dL, the Cholesterol (db/db mice [3]; Day 6, 2 mg/kg s.c. once daily for five days) was 111.43 mg/dL and the Cholesterol (db/db mice [3]; Day 6, 5 mg/kg s.c. once daily for five days) was 113.25 mg/dL. For the same molecule, the Cholesterol (db/db mice [3]; Day 6, 10 mg/kg s.c. once daily for five days) was 108.75 mg/dL, the Cholesterol (db/db mice [3]; Day 6, 20 mg/kg s.c. once daily for five days) was 112.88 mg/dL and the “blood cholesterol levels” value (db/db mice [3]; day 6, 2-20 mg/kg) was “remained at the baseline level”. For the same molecule, the “Body weight expressed in percentage of baseline value” (shortened to “Body weight expressed in percentage”) (db/db mice [4]; Day 1) was 100.0 % of baseline, the “Body weight expressed in percentage” value (db/db mice [4]; Day 2) was 97.7 % of baseline and the “Body weight expressed in percentage” value (db/db mice [4]; Day 3) was 100.5 % of baseline. The “Body weight expressed in percentage” value (db/db mice [4]; Day 4) was 101.7 % of baseline, the “body weight growth” value (db/db mice [4]; single subcutaneous injection, 5 mg/kg, significantly) was “reduced the body weight growth” and the “body weight” value (DIO mice [5]) was “significantly reduced”. For the same molecule, the “food intake” value (DIO mice [5]) was “significantly reduced”.

Reference: patent US20090203610A1, “METHODS OF TREATING OBESITY OR DIABETES USING NT-4/5” (RINAT NEUROSCIENCE CORPORATION, priority 2004, published 2009)
